Read-outs that look alike come from different tables or passages of the source.
Legend:
Assay type in all cases: cell-based, avian influenza A (H5N1)
[1] = tested on: all tested strains of H5N1
[2] = tested on: humanized H5N1 influenza virus strain Hong Kong/491/1997
[3] = tested on: bird H5N1 influenza virus strain Duck/MN/1525/81
[4] = tested on: humanized H5N1 influenza virus strain Hong Kong/491/1997; remark: listed apart in the source
[5] = tested on: bird H5N1 influenza virus strain Duck/MN/1525/81; remark: listed apart in the source
[6] = tested on: humanized H5N1 influenza virus strain Hong Kong/213/2003
[7] = tested on: humanized H5N1 influenza virus strain Hong Kong/213/2003; remark: listed apart in the source
[8] = tested on: humanized H5N1 influenza virus strain Vietnam/1203/2004H
[9] = tested on: humanized H5N1 influenza virus strain Vietnam/1203/2004H; remark: listed apart in the source
[10] = tested on: humanized H5N1 influenza virus strain Vietnam/1203/2004H; remark: listed apart in the source
[11] = tested on: bird H5N1 influenza virus strain Gull/PA/4175/83
[12] = tested on: bird H5N1 influenza virus strain Gull/PA/4175/83; remark: listed apart in the source

B1: Cyanovirin-N (protein, listed as Nostoc ellipsosporum)
chain: LGKFSQTCYNSAIQGSVLTSTCERTNGGYNTSSIDLNSVIENVDGSLKWQPSNFIETCRNTQLAGSSELAAECKTRAQQFVSTKINLDDHIANIDGTLKYE
activity against all tested strains of H5N1 (in words) [1]: active | EC50 [2]: <0.0032 mg/L | IC50 [2]: 3 mg/L | activity against the strain (in words) [2]: moderately active | EC90 [3]: 0.7 mg/L | EC90 [4]: 0.1 mg/L | EC50 [5]: 0.5 mg/L | IC50 [5]: 2 mg/L | IC50 [6]: >1 mg/L | IC50 [7]: >1 mg/L | activity against the strain (in words) [7]: highly active | EC90 [8]: 0.2 mg/L | activity against the strain (in words) [9]: moderately active | EC50 [10]: 0.03 mg/L | IC50 [10]: >1 mg/L | EC90 [11]: 0.1 mg/L | EC50 [12]: 0.1 mg/L | IC50 [12]: 3 mg/L | activity against the strain (in words) [12]: moderately active

Reference: patent publication US20100240578A1 (priority 2006, published 2010)
